# Reference: patent US20170112894A1 (CANBAS, published 2017)
# Square brackets hold non-standard residues; d marks the D form. Ends that are not written are not given here. dPhe(4-NO2) = N[C@H](Cc1ccc([N+](=O)[O-])cc1)C(=O)O; dPhe(F5) = N[C@H](Cc1c(F)c(F)c(F)c(F)c1F)C(=O)O; dBpa = N[C@H](Cc1ccc(C(=O)c2ccccc2)cc1)C(=O)O; dCha = N[C@H](CC1CCCCC1)C(=O)O
# T1: baculovirus derived recombinant human full length Chk1 with histidine tag (human, UniProt O14757 1-476)
# T1 sequence: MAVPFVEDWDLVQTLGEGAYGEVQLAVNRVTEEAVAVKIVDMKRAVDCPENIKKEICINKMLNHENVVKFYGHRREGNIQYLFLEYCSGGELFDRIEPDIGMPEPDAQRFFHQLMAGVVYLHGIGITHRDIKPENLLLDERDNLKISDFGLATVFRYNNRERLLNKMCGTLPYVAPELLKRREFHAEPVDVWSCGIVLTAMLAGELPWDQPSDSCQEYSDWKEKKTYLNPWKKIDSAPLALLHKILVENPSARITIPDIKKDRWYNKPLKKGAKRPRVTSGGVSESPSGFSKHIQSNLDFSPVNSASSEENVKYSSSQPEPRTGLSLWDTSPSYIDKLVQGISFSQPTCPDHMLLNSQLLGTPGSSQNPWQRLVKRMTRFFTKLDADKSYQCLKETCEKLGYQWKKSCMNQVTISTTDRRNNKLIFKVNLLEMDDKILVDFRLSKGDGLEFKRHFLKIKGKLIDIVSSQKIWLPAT
# B1: CBP603 (peptide)
# peptide: [dBpa][dS][dW][dS][dPhe(4-NO2)][dCha][dR][dR][dR][dQ][dR][dR]
# B2: CBP505 (peptide)
# peptide: [dBpa][dD][dS][dW][dS][dPhe(F5)][dCha][dR][dR][dR][dQ][dR][dR]
# B3: CBP500 (peptide)
# peptide: [dY][dBpa][dS][dW][dS][dPhe(F5)][dCha][dR][dR][dR][dQ][dR][dR]
# B4: CBP501 (peptide)
# peptide: [dBpa][dS][dW][dS][dPhe(F5)][dCha][dR][dR][dR][dQ][dR][dR]
# B5: CBP440 (peptide)
# peptide: YGRKKRRQRRRXFXYY
# modifications: (l-Tyr)(l-Gly)(l-Arg)(l-Lys)(l-Lys)(l-Arg)(l-Arg)(l-Gln)(l-Arg)(l-Arg)(l-Arg)(l-Cha)(l-Phe-2,3,4,5,6-F)(l-aminoundecanoic acid)(l-Tyr)(l-Tyr): Cha = cyclohexyl-alanine; Phe-2,3,4,5,6-F = pentafluoro-phenylalanine; aminoundecanoic acid spacer
# B6: CBP450 (peptide)
# peptide: [dY][dY][dS]G[dS][dR][dPhe(F5)][dCha][dR][dR][dR][dQ][dR][dR][dK][dK][dR]G[dY]
# Molecular target: T1, baculovirus derived recombinant human …
# Experiment: cell-based or functional assay
row,Binder,"Kinase inhibition (phosphorylation of serine 216 on GST-Cdc25C 167-267, enzyme linked immune assay)"
1,B1,15.5
2,B2,63.4
3,B3,5.6
4,B4,7.9

# Molecular target: E. Coli derived recombinant human full length Chk2 fused with GST (human, UniProt O96017 1-543)
# Sequence (O96017 whole entry, the tested form may be a part): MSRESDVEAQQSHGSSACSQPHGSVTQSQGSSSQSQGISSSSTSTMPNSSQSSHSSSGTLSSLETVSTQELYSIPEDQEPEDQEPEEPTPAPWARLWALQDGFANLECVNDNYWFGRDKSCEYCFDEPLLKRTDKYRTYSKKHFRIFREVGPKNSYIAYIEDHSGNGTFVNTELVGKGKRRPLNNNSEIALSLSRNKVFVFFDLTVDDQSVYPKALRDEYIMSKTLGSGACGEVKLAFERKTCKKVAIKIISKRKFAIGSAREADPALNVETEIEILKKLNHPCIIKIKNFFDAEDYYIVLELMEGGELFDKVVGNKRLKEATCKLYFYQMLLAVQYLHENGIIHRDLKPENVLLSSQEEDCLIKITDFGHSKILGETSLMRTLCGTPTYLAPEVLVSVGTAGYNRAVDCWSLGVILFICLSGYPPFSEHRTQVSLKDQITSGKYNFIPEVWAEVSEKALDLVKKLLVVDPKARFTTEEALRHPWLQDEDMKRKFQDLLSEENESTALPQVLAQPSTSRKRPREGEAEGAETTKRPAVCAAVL
# Experiment: cell-based or functional assay
row,Binder,"Kinase inhibition (phosphorylation of serine 216 on GST-Cdc25C 167-267, enzyme linked immune assay)"
1,B1,18.1
2,B2,> 100
3,B3,8
4,B4,18.6

# Molecular target: PKA
# Experiment: cell-based or functional assay
row,Binder,"IC50, kinase inhibition (PepTag Non-Radioactive Protein Kinase Assay) [µM]"
1,B5,180
2,B6,> 400

# Molecular target: purified CHK2 kinase
# Experiment: cell-based or functional assay
row,Binder,"IC50, kinase inhibition (PepTag Non-Radioactive Protein Kinase Assay) [µM]"
1,B5,8
2,B6,10
